Reference: US20190119348A1, “PARATHYROID HORMONE RECEPTOR 1 ANTAGONIST AND INVERSE AGONIST POLYPEPTIDES AND METHODS OF THEIR USE” (The General Hospital Corporation, priority 2016, published 2019)
Like-named read-outs stand apart in the source and are kept apart here. Where no end group is shown, it is not given here.

T1: human parathyroid hormone receptor 1 (hPTHR1) (human), Q03431
T1 chain: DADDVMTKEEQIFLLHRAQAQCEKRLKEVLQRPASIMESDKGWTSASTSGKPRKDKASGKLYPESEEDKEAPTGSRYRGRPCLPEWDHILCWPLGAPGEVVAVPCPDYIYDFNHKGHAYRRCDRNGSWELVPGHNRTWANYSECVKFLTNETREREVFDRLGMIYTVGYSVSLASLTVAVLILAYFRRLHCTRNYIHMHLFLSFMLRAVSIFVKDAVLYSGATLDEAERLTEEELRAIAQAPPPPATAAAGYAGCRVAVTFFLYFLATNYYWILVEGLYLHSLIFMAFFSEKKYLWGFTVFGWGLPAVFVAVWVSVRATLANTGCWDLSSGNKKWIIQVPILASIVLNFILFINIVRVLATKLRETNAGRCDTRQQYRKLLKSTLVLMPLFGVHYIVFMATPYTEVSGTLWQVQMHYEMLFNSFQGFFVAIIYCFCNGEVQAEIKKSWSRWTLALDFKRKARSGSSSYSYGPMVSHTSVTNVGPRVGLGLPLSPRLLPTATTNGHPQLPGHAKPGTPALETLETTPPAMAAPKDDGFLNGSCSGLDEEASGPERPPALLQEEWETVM


How the values were obtained:
hPTHR1-H223R (human) [1] = molecular target: hPTHR1-H223R (human) (UniProt Q03431); assay: cell-based or functional assay
[2] = molecular target: T1, human parathyroid hormone receptor 1 …; assay: cell-based or functional assay
[3] = molecular target: T1, human parathyroid hormone receptor 1 …; assay: radioligand competition on GP-2.3 cells (hPTHR1), tracer 125I-PTH(1-34), n=4
[4] = molecular target: T1, human parathyroid hormone receptor 1 …; assay: radioligand competition on GP-2.3 cells (hPTHR1), tracer 125I-PTHrP(5-36), n=4
hPTHR1-H223R (human) [5] = molecular target: hPTHR1-H223R (human) (UniProt Q03431); assay: cell-based or functional assay; remark: listed apart in the source

| IC50 (nanomolar value of the pIC50), antagonism of PTH(1-34)-induced cAMP response, GP-2.3 cells [2] [nM] | IC50 (nanomolar value of the pIC50), antagonism of PTH(1-34)-induced cAMP response, SGS-72 cells [2] [nM] | IC50 (nanomolar value of the pIC50), antagonism of PTHrP(1-36)-induced cAMP response, SGS-72 cells [2] [nM] | IC50, antagonism of PTH(1-34) (0.3 nM)-induced cAMP response, SGS-72 cells [2] [nM] | pIC50, antagonism of PTH(1-34) (0.3 nM)-induced cAMP response, SGS-72 cells [2] | pIC50, antagonism of PTH(1-34)-induced cAMP response (GloSensor), GP-2.3 cells [2] | pIC50, antagonism of PTH(1-34)-induced cAMP response, SGS-72 cells [2] | pIC50, antagonism of PTHrP(1-36)-induced cAMP response, SGS-72 cells [2] | IC50 [3] [nM] | pIC50 [3] | IC50 [4] [nM] | pIC50 [4] | Binder | further results |
| --- | --- | --- | --- | --- | --- | --- | --- | --- | --- | --- | --- | --- | --- |
| – | – | – | – | – | – | – | – | – | – | – | – | IQLMHQRAKWIQDARRRAFLHKLIAEIHTAEI-NH2 [LA-PTH(5-36)-2012] | Reduction of basal cAMP, % vehicle; After ligand washout; GHR-10 cells (hPTHR1-H223R (human) [1]): -49 % vehicle; Reduction of basal cAMP, % vehicle; Ligand @ -6M; GHR-10 cells (hPTHR1-H223R (human) [1]): -15 % vehicle |
| 377 | 5 | 5 | 14.5 | 7.84 -log M | 6.42 -log M | 8.31 -log M | 8.33 -log M | 28.6 | 7.54 -log M | 35.1 | 7.46 -log M | FMHNLWKHLSSMERVEWLRKKLQDVHNY (modifications not checked) [dW12, Y34-bPTH(7-34)-1894] | pIC50, inhibition of the cAMP signal induced by PTH(1-34) (0.3 nM), SGS-72 cells [2]: 7.2 -log M; pIC50, inhibition of the cAMP signal induced by PTH(1-34) (1 nM), GP-2.3 cells [2]: 6.4 -log M |
| 101 | 1 | 1 | 1.45 | 8.84 -log M | 7 -log M | 9.11 -log M | 9.1 -log M | 22.3 | 7.65 -log M | 17.7 | 7.75 -log M | IQLMHQRWKWIQDARRRAWLHKLIAEIHTAEI (modifications not checked) [dW12, W23-LA-PTH(5-36)-1949] | Reduction of basal cAMP, % vehicle; After ligand washout; GHR-10 cells (hPTHR1-H223R (human) [5]): 30 % vehicle; Reduction of basal cAMP, % vehicle; Ligand @ -6M; GHR-10 cells (hPTHR1-H223R (human) [5]): 41 % vehicle; IC50, antagonism of PTHrP(1-36) (0.3 nM)-induced cAMP response, SGS-72 cells [2]: 1.21 nM; pIC50, antagonism of PTHrP(1-36) (0.3 nM)-induced cAMP response, SGS-72 cells [2]: 8.92 -log M; washout assay: inhibition of the cAMP response to agonist applied after antagonist pre-treatment and rinsing [2]: > 90% |
